{"source": "patent US20240124576A1", "about": "(SHANGHAI JEMINCARE PHARMACEUTICAL, published 2024)", "binders": {"B1": {"name": "Ab9, purified Siglec-15 binding protein in the form of IgG1 (antibody, V domains shown)", "VH": "EVQLLESGGGLVQPGGSLRLSCAASGFTFSSYAMSWVRQAPGKGLEWVSTISGGGGSTYYADSVKGRFTISRDNSKNTLYLQMNSLRAEDTAVYYCAKAIGSSWYSDAFDLWGQGTMVTVSS", "VL": "DIQMTQSPSSVSASVGDRVTITCRASQDISDWLAWYQQKPGKAPKLLIYVASSLQSGVPSRFSGSGSGTDFTLTISSLQPEDFATYYCQQSYSIPYTFGQGTKLEIKR", "notes": "Expressed in ExpiCHO cells in the form of IgG1"}, "B2": {"name": "Ab0, purified Siglec-15 binding protein in the form of IgG1 (antibody, V domains shown)", "VH": "B1 VH", "VL": "B1 VL with D31S"}, "B3": {"name": "Ab0 parent sequence displayed on yeast in the form of Fab (Fab, V domains shown)", "VH": "B1 VH", "VL": "DIQMTQSPSSVSASVGDRVTITCRASQDISSWLAWYQQKPGKAPKLLIYVASSLQSGVPSRFSGSGSGTDFTLTISSLQPEDFATYYCQQSYSIPYTFGQGTKLEIK"}, "B4": {"name": "Ab2 (clone YC32A6) displayed on yeast in the form of Fab (Fab, V domains shown)", "VH": "B1 VH with F29S", "VL": "B3 VL"}, "B5": {"name": "Ab3 (clone YC33B2) displayed on yeast in the form of Fab (Fab, V domains shown)", "VH": "B1 VH with S52T, G56E", "VL": "B3 VL"}, "B6": {"name": "Ab5 (clone YC33D1) displayed on yeast in the form of Fab (Fab, V domains shown)", "VH": "B1 VH with S52Y", "VL": "B3 VL"}, "B7": {"name": "Ab6 (clone YC33G4) displayed on yeast in the form of Fab (Fab, V domains shown)", "VH": "B1 VH with S52W", "VL": "B3 VL"}, "B8": {"name": "Ab7 (clone YC33D5) displayed on yeast in the form of Fab (Fab, V domains shown)", "VH": "B1 VH with G56V, S57Y", "VL": "B3 VL"}, "B9": {"name": "Ab9 (clone YC29B3) displayed on yeast in the form of Fab (Fab, V domains shown)", "VH": "B1 VH", "VL": "B3 VL with S31D"}, "B10": {"name": "Ab13 (clone YC45H4) displayed on yeast in the form of Fab (Fab, V domains shown)", "VH": "B1 VH with S52T, G56E", "VL": "B3 VL with S53F, L54E, Q55H, S56R"}, "B11": {"name": "Ab15 (clone YC44F5) displayed on yeast in the form of Fab (Fab, V domains shown)", "VH": "B1 VH with S52T, G56E", "VL": "B3 VL with S53Y, L54I, Q55H"}, "B12": {"name": "Ab2, purified Siglec-15 binding protein in the form of IgG1 (antibody, V domains shown)", "VH": "B1 VH with F29S", "VL": "B1 VL with D31S", "notes": "as for B1"}, "B13": {"name": "Ab3, purified Siglec-15 binding protein in the form of IgG1 (antibody, V domains shown)", "VH": "B1 VH with S52T, G56E", "VL": "B1 VL with D31S", "notes": "as for B1"}, "B14": {"name": "Ab5, purified Siglec-15 binding protein in the form of IgG1 (antibody, V domains shown)", "VH": "B1 VH with S52Y", "VL": "B1 VL with D31S", "notes": "as for B1"}, "B15": {"name": "Ab6, purified Siglec-15 binding protein in the form of IgG1 (antibody, V domains shown)", "VH": "B1 VH with S52W", "VL": "B1 VL with D31S", "notes": "as for B1"}, "B16": {"name": "Ab7, purified Siglec-15 binding protein in the form of IgG1 (antibody, V domains shown)", "VH": "B1 VH with G56V, S57Y", "VL": "B1 VL with D31S", "notes": "as for B1"}, "B17": {"name": "Ab13, purified Siglec-15 binding protein in the form of IgG1 (antibody, V domains shown)", "VH": "B1 VH with S52T, G56E", "VL": "B1 VL with D31S, S53F, L54E, Q55H, S56R", "notes": "as for B1"}}, "note": "Where a chain is given by its changes, count along the chain named.", "data": [{"target": "T1, extracellular domain of human Siglec-15 with PDGFR transmembrane domain on human S15ECD-293T cells (human, UniProt Q6ZMC9 20-263; P09619 513-561)", "T1 construct": "range 20-263;range 513-561; also called human Siglec-15 on the surface of a cell", "assay": "flow cytometry on human S15ECD-293T cells, Alexa 488 secondary antibody; Ab9 on human S15ECD-293T cells", "from_the_text": "The purified Siglec-15 binding protein of the present application was identified by flow cytometry for its function to bind to human S15ECD-293T cells of the present application. Human S15ECD-293T cells prepared by the methods of the present application can be expanded to 90% confluence in 15 cm cell culture dishes, media were pipetted completely, the cells were washed once with PBS buffer (Thermo Fisher, 10010049), then treated with enzyme-free cell dissociation buffer (Versene solution, Thermo Fisher, 15040066) and harvested. The cells were washed twice with PBS buffer and counted, the desired quantity of cells was removed for centrifugation, the cells were resuspended to 2×10^6 cells/ml with FACS buffer (PBS with 2% FBS). After incubation at room temperature for 15 min, the cell suspension was added to a U-shaped 96-well plate (Corning, 3798) at 50 μL/well. The Siglec-15 binding proteins of the present application were serially diluted in FACS buffer, the dilution was added to the above 96-well plate at 50 μL/well and incubated at 4° C. for 1 h. […] The cells were resuspended in 30 μL/well FACS buffer, and detected and analyzed by flow cytometry intellycite plus (Sartorius). […]", "units": {"EC50": "nM"}, "values": [{"binder": "B1", "EC50": 1.52}]}, {"target": "T2, human Siglec-15 (Acro, Cat. No. SG5-H52H3) (human, UniProt Q6ZMC9 20-263)", "T2 construct": "Bought reagent used as the analyte in the Octet assay; also called antigen", "T2 sequence (looked up)": "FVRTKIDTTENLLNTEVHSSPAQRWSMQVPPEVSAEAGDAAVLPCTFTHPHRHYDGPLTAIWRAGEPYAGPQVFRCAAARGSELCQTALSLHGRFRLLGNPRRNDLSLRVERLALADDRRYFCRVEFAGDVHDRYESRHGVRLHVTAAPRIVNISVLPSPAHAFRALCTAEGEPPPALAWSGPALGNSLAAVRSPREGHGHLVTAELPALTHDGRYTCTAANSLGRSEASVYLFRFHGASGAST", "assay": "BLI (Octet RED96e), antibody captured on AHC sensor, 30 nM antigen, 1:1 fit; first assay", "description": "(§1) Affinity of Siglec-15 binding protein of the present application to human Siglec-15 (Acro, Cat. No.: SG5-H52H3) was determined using Octet RED96e (Fortebio), both of the antigen and the Siglec-15 binding protein of the present application were diluted with 1×PBST (1×PBS: Sangon, B548117-0500; 0.02% Tween 20: Sigma-aldrich, P1379). The antigen is used at a concentration of 30 nM and the Siglec-15 binding protein of the present application is used at a concentration of 33.3 nM.\n(§2) First, a sample was added to a 96-well plate (Greiner bio-one, 655209) in a system of 200 μL/well. Software parameters were then set, the plate temperature was set to 30° C., and the frequency at which the standard kinetic signal was collected was 5.0 Hz. Next, the AHC sensor (Fortébio, Cat. No.: 18-0015) was pre-wetted with 1×PBST for 10 min, then the sample was loaded on the machine for detection, with each cycle containing the following steps: 1) immersing the sample in buffer for 60 s; 2) detecting whether the antigen has non-specific binding to the sensor; 3) regenerating in a 10 mM glycine solution at pH 1.7; 4) immersing in buffer for 60 s; 5) immobilizing the Siglec-15 binding protein of the present application on the sensor for 20 s; 6) immersing the sensor in buffer for 180 s; 7) binding the antigen to the Siglec-15 binding protein of the present application for 180 s; 8) dissociating the antigen with Siglec-15 binding protein of the present application for 10 min; and 9) regenerating the sensor.\n(§3) The equilibrium dissociation constant (KD) of the Siglec-15 binding protein of the present application was calculated by determining the binding rate constant (kon) and dissociation rate constant (kdis) of the antigen-Siglec-15 binding protein of the present application in a 1:1 binding manner using Data Analysis 12.0 software fromx Fortebio.", "units": {"Kd": "nM", "koff": "s⁻¹", "kon": "M⁻¹ s⁻¹"}, "values": [{"binder": "B2", "Kd": 0.109, "koff": "3.24e-05", "kon": 298000}]}, {"target": "T3, extracellular domain of monkey Siglec-15 on monkey S15ECD-293T cells (monkey)", "T3 chain": "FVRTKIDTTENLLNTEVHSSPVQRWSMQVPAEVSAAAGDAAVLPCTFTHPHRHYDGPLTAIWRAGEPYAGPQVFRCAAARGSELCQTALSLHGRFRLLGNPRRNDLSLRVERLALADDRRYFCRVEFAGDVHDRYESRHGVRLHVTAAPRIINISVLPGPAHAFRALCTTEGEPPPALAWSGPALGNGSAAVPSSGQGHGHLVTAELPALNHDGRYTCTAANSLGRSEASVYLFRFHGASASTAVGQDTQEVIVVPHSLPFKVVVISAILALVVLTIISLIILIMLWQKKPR", "assay": "flow cytometry on monkey S15ECD-293T cells, Alexa 488 secondary antibody", "units": {"EC50": "nM"}, "values": [{"binder": "B1", "EC50": 0.922}]}, {"target": "T4, biotinylated human Siglec-15 protein (Acrobiosystems, Cat. No. SG5-H82E9) (human, UniProt Q6ZMC9 20-263, biotinylated)", "T4 construct": "Bought reagent; also called HS-15 Biotin; human S-15 Biotin", "T4 sequence (looked up)": "T2 sequence (looked up)", "assay": "flow cytometry of yeast-displayed Fab, 1 nM HS-15 Biotin 30 min, 2 h wash", "description": "After sequencing analysis, the single clone with single sequence was identified by flow cytometry staining, incubated with 1 nM HS-15 Biotin for 30 min, respectively, and washed with 1 mL 1×PBSA for 2 h at room temperature; after flow cytometry analysis, the fluorescence intensity of different clones binding to antigen was compared.", "units": {"Binding MFI": "MFI"}, "values": [{"binder": "B3", "Binding MFI": 52.2, "Binding force (Displaying MFI/Binding MFI) *10000": 219}, {"binder": "B4", "Binding MFI": 133, "Binding force (Displaying MFI/Binding MFI) *10000": 441}, {"binder": "B5", "Binding MFI": 188, "Binding force (Displaying MFI/Binding MFI) *10000": 658}, {"binder": "B6", "Binding MFI": 135, "Binding force (Displaying MFI/Binding MFI) *10000": 480}, {"binder": "B7", "Binding MFI": 94.2, "Binding force (Displaying MFI/Binding MFI) *10000": 411}, {"binder": "B8", "Binding MFI": 113, "Binding force (Displaying MFI/Binding MFI) *10000": 455}, {"binder": "B9", "Binding MFI": 131, "Binding force (Displaying MFI/Binding MFI) *10000": 289}, {"binder": "B10", "Binding MFI": 109, "Binding force (Displaying MFI/Binding MFI) *10000": 465}, {"binder": "B11", "Binding MFI": 105, "Binding force (Displaying MFI/Binding MFI) *10000": 409}]}, {"target": "T2, human Siglec-15 (Acro, Cat. No. …)", "assay": "BLI (Octet RED96e), antibody captured on AHC sensor, 30 nM antigen, 1:1 fit; second assay", "parameters": "Response value: unit not given here", "description": "as §1, §2, §3", "units": {"Kd": "nM", "koff": "s⁻¹", "kon": "M⁻¹ s⁻¹"}, "values": [{"binder": "B12", "Kd": 0.155, "Response value": 0.262, "koff": "6.96e-05", "kon": 448000}, {"binder": "B13", "Kd": 0.0444, "Response value": 0.288, "koff": "1.95e-05", "kon": 440000}, {"binder": "B14", "Kd": 0.0076, "Response value": 0.277, "koff": "2.57e-06", "kon": 338000}, {"binder": "B15", "Kd": 0.00843, "Response value": 0.285, "koff": "2.87e-06", "kon": 340000}, {"binder": "B16", "Kd": 0.00508, "Response value": 0.284, "koff": "1.44e-06", "kon": 282000}, {"binder": "B1", "Kd": 0.0873, "Response value": 0.259, "koff": "3.88e-05", "kon": 445000}, {"binder": "B17", "Kd": 0.0681, "Response value": 0.305, "koff": "3.79e-05", "kon": 556000}]}, {"target": "T2, human Siglec-15 (Acro, Cat. No. …)", "assay": "BLI (Octet RED96e), antibody captured on AHC sensor, 30 nM antigen, 1:1 fit; third assay", "description": "as §1, §2, §3", "units": {"Kd": "nM", "koff": "s⁻¹", "kon": "M⁻¹ s⁻¹"}, "values": [{"binder": "B1", "Kd": 0.0691, "koff": "3.59e-05", "kon": 519000}]}, {"target": "T5, full length murine Siglec-15 on murine S15-CT26 cells (murine)", "T5 construct": "whole, on cells; also called murine Siglec-15 on the surface of a cell", "assay": "flow cytometry on murine S15-CT26 cells, Alexa 488 secondary antibody", "units": {"EC50": "nM"}, "values": [{"binder": "B1", "EC50": 3.25}]}]}
